In the supplement of paper PMC11316812:
± gives the standard deviation of the averaged measurements.

Experiments:
MCF7 = experiment: percentage of EdU-negative (G0-arrested) nuclei per well, 72 h; higher = more G0 arrest; settings: reference: sequence is the full UniProt precursor, the tested protein was the secreted form or ectodomain
hTERT-HMEC = experiment: as above; settings: reference: sequence is the full UniProt precursor, the tested protein was the secreted form or ectodomain
[1] = protein concentration 0.0225 µM
[2] = protein concentration 0.0357143 µM
[3] = protein concentration 0.357143 µM
[4] = protein concentration 0.0182857 µM
[5] = protein concentration 0.182857 µM
[6] = protein concentration 0.025165 µM
[7] = protein concentration 0.25165 µM
[8] = protein concentration 0.03125 µM
[9] = protein concentration 0.3125 µM
[10] = protein concentration 0.02525 µM
[11] = protein concentration 0.2525 µM
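Note: secreted proteins added to cultured cells, EdU pulse at the end, nuclei found by Hoechst imaging, EdU status from nuclear versus surrounding ring intensity ratio, PBS as neutral control.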

Sequence: MNQVTIQWDAVIALYILFSWCHGGITNINCSGHIWVEPATIFKMGMNISIYCQAAIKNCQPRKLHFYKNGIKERFQITRINKTTARLWYKNFLEPHASMYCTAECPKHFQETLICGKDISSGYPPDIPDEVTCVIYEYSGNMTCTWNAGKLTYIDTKYVVHVKSLETEEEQQYLTSSYINISTDSLQGGKKYLVWVQAANALGMEESKQLQIHLDDIVIPSAAVISRAETINATVPKTIIYWDSQTTIEKVSCEMRYKATTNQTWNVKEFDTNFTYVQQSEFYLEPNIKYVFQVRCQETGKRYWQPWSSLFFHKTPETVPQVTSKAFQHDTWNSGLTVASISTGHLTSDNRGDIGLLLGMIVFAVMLSILSLIGIFNRSFRTGIKRRILLLIPKWLYEDIPNMKNSNVVKMLQENSELMNNNSSEQVLYVDPMITEIKEIFIPEHKPTDYKKENTGPLETRDYPQNSLFDNTTVVYIPDLNTGYKPQISNFLPEGSHLSNNNEITSLTLKPPVDSLDSGNNPRLQKHPNFAFSVSSVNSLSNTIFLGELSLILNQGECSSPDIQNSVEEETTMLLENDSPSETIPEQTLLPDEFVSCLGIVNEELPSINTYFPQNILESHFNRISLLEK [Q5VWK5]
- percentage of EdU-negative (MCF7; [1]): 23.7 ± 1.1%
- percentage of EdU-negative (MCF7; protein concentration 0.225 µM): 29.2 ± 0.53%
- percentage of EdU-negative (hTERT-HMEC; [1]): 6.46 ± 1.6%
- percentage of EdU-negative (hTERT-HMEC; protein concentration 0.225 µM): 15.8 ± 1.4%

Sequence: MNRFLLLMSLYLLGSARGTSSQPNELSGSIDHQTSVQQLPGEFFSLENPSDAEALYETSSGLNTLSEHGSSEHGSSKHTVAEHTSGEHAESEHASGEPAATEHAEGEHTVGEQPSGEQPSGEHLSGEQPLSELESGEQPSDEQPSGEHGSGEQPSGEQASGEQPSGEHASGEQASGAPISSTSTGTILNCYTCAYMNDQGKCLRGEGTCITQNSQQCMLKKIFEGGKLQFMVQGCENMCPSMNLFSHGTRMQIICCRNQSFCNKI
- percentage of EdU-negative (MCF7; [2]): 24.76 ± 0.1%
- percentage of EdU-negative (MCF7; [3]): 27.1 ± 1.2%
- percentage of EdU-negative (hTERT-HMEC; [2]): 6.06 ± 0.83%
- percentage of EdU-negative (hTERT-HMEC; [3]): 9.78 ± 0.68%

Sequence: MNVLLGSVVIFATFVTLCNASCYFIPNEGVPGDSTRKCMDLKGNKHPINSEWQTDNCETCTCYETEISCCTLVSTPVGYDKDNCQRIFKKEDCKYIVVEKKDPKKTCSVSEWII
- percentage of EdU-negative (MCF7; [1]): 25.8 ± 1.8%
- percentage of EdU-negative (MCF7; protein concentration 0.225 µM): 24.5 ± 0.81%
- percentage of EdU-negative (hTERT-HMEC; [1]): 5.28 ± 0.77%
- percentage of EdU-negative (hTERT-HMEC; protein concentration 0.225 µM): 5.95 ± 1.1%

Sequence: MNWHLPLFLLASVTLPSICSHFNPLSLEELGSNTGIQVFNQIVKSRPHDNIVISPHGIASVLGMLQLGADGRTKKQLAMVMRYGVNGVGKILKKINKAIVSKKNKDIVTVANAVFVKNASEIEVPFVTRNKDVFQCEVRNVNFEDPASACDSINAWVKNETRDMIDNLLSPDLIDGVLTRLVLVNAVYFKGLWKSRFQPENTKKRTFVAADGKSYQVPMLAQLSVFRCGSTSAPNDLWYNFIELPYHGESISMLIALPTESSTPLSAIIPHISTKTIDSWMSIMVPKRVQVILPKFTAVAQTDLKEPLKVLGITDMFDSSKANFAKITTGSENLHVSHILQKAKIEVSEDGTKASAATTAILIARSSPPWFIVDRPFLFFIRHNPTGAVLFMGQINKP
- percentage of EdU-negative (MCF7; [4]): 26.98 ± 0.12%
- percentage of EdU-negative (MCF7; [5]): 27.93 ± 0.17%
- percentage of EdU-negative (hTERT-HMEC; [4]): 4.86 ± 0.67%
- percentage of EdU-negative (hTERT-HMEC; [5]): 9.81 ± 1%

Sequence: MPACRLGPLAAALLLSLLLFGFTLVSGTGAEKTGVCPELQADQNCTQECVSDSECADNLKCCSAGCATFCSLPNDKEGSCPQVNINFPQLGLCRDQCQVDSQCPGQMKCCRNGCGKVSCVTPNF
- percentage of EdU-negative (MCF7; [6]): 25.2 ± 0.76%
- percentage of EdU-negative (MCF7; [7]): 25.3 ± 0.99%
- percentage of EdU-negative (hTERT-HMEC; [6]): 4.52 ± 0.38%
- percentage of EdU-negative (hTERT-HMEC; [7]): 4.9 ± 0.49%

Sequence: MPAFNRLFPLASLVLIYWVSVCFPVCVEVPSETEAVQGNPMKLRCISCMKREEVEATTVVEWFYRPEGGKDFLIYEYRNGHQEVESPFQGRLQWNGSKDLQDVSITVLNVTLNDSGLYTCNVSREFEFEAHRPFVKTTRLIPLRVTEEAGEDFTSVVSEIMMYILLVFLTLWLLIEMIYCYRKVSKAEEAAQENASDYLAIPSENKENSAVPVEE [Q9NY72]
- percentage of EdU-negative (MCF7; [8]): 25.4 ± 0.68%
- percentage of EdU-negative (MCF7; [9]): 25.4 ± 1.8%
- percentage of EdU-negative (hTERT-HMEC; [8]): 4.7 ± 0.6%
- percentage of EdU-negative (hTERT-HMEC; [9]): 4.76 ± 0.95%

Sequence: MPAGRAARTCALLALCLLGAGAQDFGPTRFICTSVPVDADMCAASVAAGGAEELRSSVLQLRETVLQQKETILSQKETIRELTAKLGRCESQSTLDPGAGEARAGGGRKQPGSGKNTMGDLSRTPAAETLSQLGQTLQSLKTRLENLEQYSRLNSSSQTNSLKDLLQSKIDELERQVLSRVNTLEEGKGGPRNDTEERVKIETALTSLHQRISELEKGQKDNRPGDKFQLTFPLRTNYMYAKVKKSLPEMYAFTVCMWLKSSATPGVGTPFSYAVPGQANELVLIEWGNNPMEILINDKVAKLPFVINDGKWHHICVTWTTRDGVWEAYQDGTQGGSGENLAPYHPIKPQGVLVLGQEQDTLGGGFDATQAFVGELAHFNIWDRKLTPGEVYNLATCSTKALSGNVIAWAESHIEIYGGATKWTFEACRQIN
- percentage of EdU-negative (MCF7; [10]): 26.9 ± 2.1%
- percentage of EdU-negative (MCF7; [11]): 24.2 ± 4.3%
- percentage of EdU-negative (hTERT-HMEC; [10]): 5.12 ± 0.18%
- percentage of EdU-negative (hTERT-HMEC; [11]): 4.43 ± 0.47%
